Laboratory results: the domain aggregation screens of Martell et al. (2025)

Test: soluble fraction after stress (log2 fold change); higher = more stays soluble; pooled small domains, quantitative proteomics
Conditions: stress: 75 degC
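Also: 20 min heating vs room temperature control held 20 min.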

Sequence | soluble fraction (log2)
HMKKQLKSEAVADELRRKILSGGFPDKRLPRKDELTEYFQVSQKTVEAALKMLTAEGLIRGVKGTGIFVNG | -0.703
HMKKQLTISDGDWAGKVSSMLEDMGVINSASEFDKYLSDNGYSNVIKSGTYDVSPEDTFQELAEKIT | 0.952
HMKKRDAEIMLQREFKLTEAIAMVRDRDIQELLPIALYFKVNINQPTAEIRYNLLNIAKSKTQEFIEAFD | -2.14
HMKKRDANSQGTRLILFYMLQRLHTEYKLQGFVTYNQRRSFREIYDAYHALGGNGFGTAMWEEVKELDLK | -2.18
HMKKTAAKVLGESEGKPVTVQSGRYGPYVQLGSIRATLPKDLEQDDVTLDRALELISAKAERAGK | -0.0332
HMKKTDFNVENYDIEELAAILNFKYVPLNQGLIRDRIKDMKQRFKNKPEYIKFFTDVEIKLVNNLNLFN | -1.67
HMKKTFSKSSVMEAIFRDIPNITIPNAHEVYTLIKNISVMNKRKSITSEDIEKAYDALGLTP | -0.928
HMKKTPLSELTNRAVELFIETVFMERNYSVSSQRQFISALKIFTVFYPQTKIHNLSLERLQSSFDKLLN | -1.25
HMKKTTEFAVTPEFQQRLEASPELKAAFQALTPGRQRAHLLFFAAPKQAQTRQARIEKSLPQIMAGKGLN | -0.2
HMKKTVTDSVELLTFLKDIFTNTSTNKLRKMLTTGRVTVNNIVIHKAKHILVQNDVVEIGDK | -3.37
HMKKVIEFKDVSFAFEKKPILQDFNLLVQNKDRIGIVGDNGVGKSTLLNLIAERLQPQSGQVII | 0.111
HMKKVSVKPILELRAAGISMRKIETLMHVSRHTISAIYKAADAYSISWDNVKDFDEDKIYEMLFPPTP | -4.13
HMKKYEIIFNDLKQSIVNGKYSNEERLPPEETLAKKYQTSRVPVQQALNALVGIGMVKRIAGSGTYVTY | -0.394
HMKKYFPPKSRFNPNKYLLKDWMALGLSEKQSQSILNFIQRGIYSNSALEKIYVMPEEVFTLIKDSTYYEE | -1.38
HMKKYIEIYNYYKQLIESEQLKSGDKMPSVRKATKIFNVSKTTVQNAYFDLQADGYIIAAPKSGYYVTEM | -1.07
HMKKYLNIYNIIVNKIESKEYQSNDKLPSEKELMDQYNVSRDTVRKSLNMLEQNGYIQKTKGKGSFVLDIN | -0.865
HMKLEEITIIVPSLRLDNFVSDLARTSRSKAVQIIDSERVFINGQNETKASKQVKLGDVITSA | -0.211
HMKLHPRDQERTRAISARGERLYAVTVGDLRRRIGEMLEWFGRQIESQEPMRVAKAARRITDFFDQVEAFT | -2.5
HMKLIRLGKAAGELNVGMSTLAEFLQSKGHSVDPNPNTKLTPEQYALLRMEFAADQTLKKLTKQP | 0.452
HMKLKHANGNHPLTQQEKQNMIEEAAKHYGDYMTALGFDWKQDPNSSDTPMRVAKAFVNDLAEGVY | 0.0234
HMKLLLSANISKLRKKYSMTQEQLAEALGVTFASVSKWERGVATPELKLIAEMADMFEVSIDALIGYEFRN | -1.87
HMKLPIEKESYRIIWDLEEESFRIRLKISENSPQEEKNILINQAIEDIENITGEPIDKSPYYVLYE | -0.627
HMKLPNSFGSIQKLSGNRRKPYRVVKTIGWDENGKQIRKTLGYYETRAKALQELALFNEKPYD | -1.72
HMKLTALWTANPKISAPIYSEPSTQSKTLGRIYQGASVKVYSFDPEWAYINSSGVVGYVLRRHLE | -2.43
HMKLTINIDAAHDGKTIKQLFAEKGYSLELIKKFKYDGAIEVNGERKTVRWVLREGDLLVLEAN | -2.42
HMKLTNIQYETLKVVVESRAKIDEEEGITIKLEDIKKYIDQAISFTGLVGDDEDYKKLFADMEYRFKIQ | -2.96

Sequence | soluble fraction (log2)
HMKLVAAGYHQNRLLVLLGIQAEELQAKRLLASFDRFRGREATPKPPIHDSARRWLRDTYHHVMNQVPVEL | -1.59
HMKMHKIIKERRLALNFTQEQVAKYLGVTTPAVNKWEKGISYPDISLLPALARLLDTDLNTLLSF | -4.38
HMKMLPAEVLTHPAVVALIERGAPTGSITPEEVRQASEDAAVEPRHLKALLAHLSALGISVQIP | -0.303
HMKMLSIQRREAIRALLLEKESITIAEVMEKFQISVETARRDFDALADEGFLNKVYGGATLKK | -1.68
HMKMPNGYGSITKLSGKRRKPWRVRKTAGWELDAKTQKLKQTYINIGYYETRADAMSALVSYNEDP | -1.01
HMKMQPVISQGVLYINNVTDVRTIEVFDISGRIVADAAASTTVNIAHLNEGPYIVKVTTVNGIESIKILNK | -2.5
HMKNAMTDIYLEEIKKILTKNEFLVYTLRELNNFSVQFITDNYDLSEKTIYNSVYRAKKKIDRHFT | -0.159
HMKNDKLLIFMELKGISRTQLSKSTGIPASTLGRIINGDVQKIKAVYMEAIANALDTSIHTIFDV | -1.6
HMKNDNIHMMASKINGIALEVGVLTPGMHPKNDLSEGEVGYIVTNLKTTREAKVGDTVTLAKKPAATPLPG | 0.322
HMKNETFAITSEDAGKRLDVWLTNILGDYSRSYVERLVEQGNVTVGGKTVKAGYKLKAGDSVQVSIPGPK | 0.144
HMKNISSEEDREKALSLGITQEFIDNKGRYFITVPNKPSNFKEQALNIQKEISEQIDTVINKRFEF | 0.0903
HMKNLDILTPKEIEVLNLVAKGYSNSKISKELDIAEVTVKKHIGSMFQKLDVKDRLSLALIL | -0.591
HMKNLKPSTEVILKELVKRYPDQTEFRKQQIVDVGQSFGYKGKDYGPIFDADNRVKIGTYDLAGLIVPLQR | 0.0472
HMKNLNVIDLSALRTLELKESSDWTLIQKRFKLLVKKYHPDMNAGSKQYEEKLKKITLAYTHLKKLF | -2.67
HMKNQQLFNIGDRFQVDGVAYRMEKLFPENGTVEVYNLGVGRHKTMSFEEILALWNSGKLLFEI | -0.966
HMKNSIKLDNFVGMSYDEVISNKEYDFNFVSAFEKTSDYEAGTIIGQTPAAEERVMVGTTVTLTVAQP | 0.491
HMKNTADRVYENLFHMLVSGDYAPGDRIPSEHELKERFNVSRNTIRAALNRMNALGIIETRQGDGTYLKG | -0.472
HMKNTFGLTEREMEVLALIVDGLSNPEIAEKLFITRATAKAHVHSILQKLYVDDRTQAAVTAMREGL | -2.21
HMKNTIPVPHIIGLSEQEARETLERAGLQLNVIKTEPNTKYESGQVTDTNPNEGIKVPKGTIVNVVLADS | -0.0118
HMKNTLDAYIRYLSNFLSRNNYPEAEDLSFINARADQAYEVFLEARRGGVDVSTAEELAMIALMQGY | -2.34
HMKNVEEMILGKLKRKVSENLENASFEEIILVDAEKSVYKGIIKANYIEYYFRVNLSTGEVLSWKLK | -0.86
HMKPAFTPYVVKVTADVLNVRSGPGTNYGITTKVKKGEAYTIVEEKNGWGKLKSGAGWISLEYTVK | -1.09
HMKPALFSADELNRLYRYGLSLTGERDRAYDLLQTALEKYLRQSQAPANAMRYVRKIMHNQFIDDYR | -1.53
HMKPDWLSDGRLIPDEVMSHLRKIAVHAVEEMGYSPEDVIKILGLSRNTIYDWLKRFREHGYEGLDTKK | -0.957
HMKPLAQQVNDYLAATRTSIATLANEIPGYSRPTISRYLAGKYDGDITTIEKLLAEWLAQRTG | -0.832
HMKPNEYVSGETFPYLGKNYRLKVLHGSENSVRLKGGYFITTISNRDSQLSTVKSLLEDWYQTHADK | 0.043

Sequence | soluble fraction (log2)
HMKPPTIELSYSEFIELVERGKVSKVIFSSDNYTLKGETVNGENFETVRPPFLEDNLSEILTIHKVPVSSE | -0.109
HMKPSKTVYTTANLNLRNGASMSAAVYTSVSRGTALATTGRTTSGWTQITHRGRTLWASSKYLTTTTPP | -3.17
HMKPSNRSYPTALRMEVIGIIRERYADFGPTLAGEKLAELHGIHLGRETIRQWMMAAGLWKDRR | -1.09
HMKPTVKVPNVVNLSLRNAQIQLQNYGLEVGSISYESSRFKNAVLRQSISEGSVVEKGTTINLVISDGL | -1.56
HMKPVPPLNGTSLRDLALGYAGRYATTAARLKHYLQRKLRERGWGGEDEPDLDGLVARLVELGYVNDEVF | -0.704
HMKQAINFSDLNSLEEGLGIAIRQKWNEVSINDVPEDKIELVEDWINNNRGKYKGINISIGSTY | 0.114
HMKQAVESAEAIFEEIARIKKLSLVKSEAEEIARKTGLQKFTIASQLLKNQHAYEMDESEIASLWDKKI | -0.0597
HMKQDFVYNGFVEAKGDDLMVQINYKGETYYVTEGESFGGFTVKSANKDKVVLSGQGGAETVLEFR | -0.186
HMKQENRLKILRKEKGLTQTKLANEIGVSKRTIIAWENDERQIKPDKAQQLADYFGVKEGYLLGYTNN | 0.114
HMKQESSEDLLNEVIDKVIDSNPDEKNRLLDGELKLVSFFMGQVMKETKGKANPGVINGLIKKKFNI | -0.701
HMKQISNTDELEAMIQKIIEDNSQQVEKFRSGNEKLFGWFVGQVMKNTQGAANPKVVNEILKKSLK | 0.318
HMKQISNTDELESMAKNIIQENPDQVSKFKNGNEKLFGWFVGQMMKSTGGTANPKVVNEILKNLLN | 0.134
HMKQLIGYSVIDIKMGKLGEISFVNSKTAQALIHVSKDGKGFYFPWHKQFVKNIDAEKGIMEVEIPKEFLD | -0.974
HMKQLNKRQNDILSFAEKQGYVSVENLAKLFSVTQQTIRRDINYLSDNELLVRTHGGAYYSS | -1.18
HMKQNRNLPVQIINNGKIIESVMTEFNLDIDWVYSEAKRLGYKNIKDIFYAGINRDGQFFIVPLF | -3.06
HMKQNVEAVIKERAIEKARAQVKAVSTHMALEAQSLSKEQLEFEIERIAAQIIDKMPSDFWND | -1.28
HMKQPNFTVIETKILELLFQKDLSSREMQEILKISKDNLIFALQNLLEQEKIVLQTSNTYTVN | -1.88
HMKQPVPDEIYFKRLANATEALGRYPRASERKKFGLNMSKRRYPTLTDFINKAIELGYVEDFR | -0.833
HMKQQAYEQGKAAYQSGDWLRAVTQLGQVKEAGEKNGEVDHLLGNAYMKLGQFESAAYAYNSALEDVA | 0.53
HMKQTMIVVMEKDAPQSQIDDMVKRIEGLGLKAHTIVGTQRTVVAAIGEKREDTRESLAGSPGVAEVVPIL | 0.239
HMKQYVEPASETEKMVVELWEKVLLTEKIGMHDDFFELGGHSLKAMRLISLYHQEFNVRLSLKSLFEKLK | -0.241
HMKRAVGLDEYRDSIVLKKPEGYTEESYAAYKNAYDALMALDSKETTAEMFANAKSAFEAAQAGLVQKP | 0.119
HMKRIFEKKVVTESLNGLRLDKAAATLFADFSRNELGQWIKDEALLVNGKAKKVKEKVSEGDVLALDVELI | 0.203
HMKRISDEDLLVMRRIDEVHTYHPTWGYRTITRILRRDDHLLINPKKVRRIMRDMGIYTIYPK | -0.0338
HMKRITAVISQKKGRDYYYIIVSYYLSNGKRVQRWIKTEFPINGNNKRKLEQKRIEVLQEWQDKLV | -1.23
